Experimental data published in paper PMC11965572.
Values joined by “and” are separate entries in the source; they are usually repeats but may differ in a detail not shown here. Equal values may be shown once.

Biological target: wild-type human ACE2-Fc (human) (UniProt Q9BYF1)
Assay: SEC; protein A-purified wild-type ACE2-Fc fractionated on a Superdex 200 column

Q: Which percent as higher oligomers does the source give for “wild-type human ACE2-Fc (from UniProt Q9BYF1 18-728) (Fc fusion)” here?
A: 18%

Q: What about the percent as tetramers of the same substance?
A: 9%

Q: What about the percent in a dimeric state of the same substance?
A: 73%

Q: And the stoichiometry N?
A: 2 and 4
